Measured values from patent publication US20250262210A1 (TRUSTEES OF COLUMBIA UNIVERSITY IN THE CITY OF NEW YORK, published 2025).

Legend:
TRAPPC11 = target: T1, TRAPPC11 (human, UniProt Q7Z392 1-1133, limits assumed); experiment: IP/MS, LZTR1 wild type-FLAG, U87
T1 sequence (looked up): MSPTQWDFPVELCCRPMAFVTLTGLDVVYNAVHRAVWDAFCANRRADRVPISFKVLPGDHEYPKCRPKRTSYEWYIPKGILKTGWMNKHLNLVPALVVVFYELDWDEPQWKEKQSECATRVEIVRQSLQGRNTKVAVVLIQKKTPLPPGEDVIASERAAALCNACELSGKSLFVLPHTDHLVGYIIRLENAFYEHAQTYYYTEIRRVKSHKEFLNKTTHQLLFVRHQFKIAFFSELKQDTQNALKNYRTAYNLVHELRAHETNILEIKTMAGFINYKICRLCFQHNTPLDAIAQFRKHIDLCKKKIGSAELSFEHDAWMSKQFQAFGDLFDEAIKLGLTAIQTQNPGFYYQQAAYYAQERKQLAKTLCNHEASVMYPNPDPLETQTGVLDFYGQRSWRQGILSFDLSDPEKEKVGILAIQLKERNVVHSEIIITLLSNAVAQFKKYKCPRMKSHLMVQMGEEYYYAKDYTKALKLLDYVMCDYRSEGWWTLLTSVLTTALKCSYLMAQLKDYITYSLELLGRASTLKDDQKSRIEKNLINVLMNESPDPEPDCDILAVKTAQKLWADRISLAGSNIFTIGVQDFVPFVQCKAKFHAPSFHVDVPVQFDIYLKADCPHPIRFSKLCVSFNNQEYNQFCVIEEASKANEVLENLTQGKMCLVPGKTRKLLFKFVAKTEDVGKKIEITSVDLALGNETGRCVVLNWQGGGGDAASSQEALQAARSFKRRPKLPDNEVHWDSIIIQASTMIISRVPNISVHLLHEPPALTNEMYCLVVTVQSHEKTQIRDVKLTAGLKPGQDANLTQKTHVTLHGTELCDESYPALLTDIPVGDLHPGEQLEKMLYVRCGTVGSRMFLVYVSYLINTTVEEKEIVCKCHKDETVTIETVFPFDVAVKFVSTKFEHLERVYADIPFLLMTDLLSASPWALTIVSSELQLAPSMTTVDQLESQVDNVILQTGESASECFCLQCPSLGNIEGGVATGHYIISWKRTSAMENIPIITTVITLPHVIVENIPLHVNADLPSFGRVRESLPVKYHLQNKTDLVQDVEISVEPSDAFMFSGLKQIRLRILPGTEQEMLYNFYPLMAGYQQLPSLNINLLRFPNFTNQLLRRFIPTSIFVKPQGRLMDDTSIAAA
Summary of the method: (§1)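 Read-out: spectral counts from LC-MS/MS (Orbitrap Fusion) after MaxQuant identification. Variable modifications were Met oxidation, protein N-terminal acetylation and N/Q deamidation.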

RAPH1 = target: T2, RAPH1 (human, UniProt Q70E73 1-1250, limits assumed); experiment: IP/MS, LZTR1 wild type-FLAG, U87
T2 sequence (looked up): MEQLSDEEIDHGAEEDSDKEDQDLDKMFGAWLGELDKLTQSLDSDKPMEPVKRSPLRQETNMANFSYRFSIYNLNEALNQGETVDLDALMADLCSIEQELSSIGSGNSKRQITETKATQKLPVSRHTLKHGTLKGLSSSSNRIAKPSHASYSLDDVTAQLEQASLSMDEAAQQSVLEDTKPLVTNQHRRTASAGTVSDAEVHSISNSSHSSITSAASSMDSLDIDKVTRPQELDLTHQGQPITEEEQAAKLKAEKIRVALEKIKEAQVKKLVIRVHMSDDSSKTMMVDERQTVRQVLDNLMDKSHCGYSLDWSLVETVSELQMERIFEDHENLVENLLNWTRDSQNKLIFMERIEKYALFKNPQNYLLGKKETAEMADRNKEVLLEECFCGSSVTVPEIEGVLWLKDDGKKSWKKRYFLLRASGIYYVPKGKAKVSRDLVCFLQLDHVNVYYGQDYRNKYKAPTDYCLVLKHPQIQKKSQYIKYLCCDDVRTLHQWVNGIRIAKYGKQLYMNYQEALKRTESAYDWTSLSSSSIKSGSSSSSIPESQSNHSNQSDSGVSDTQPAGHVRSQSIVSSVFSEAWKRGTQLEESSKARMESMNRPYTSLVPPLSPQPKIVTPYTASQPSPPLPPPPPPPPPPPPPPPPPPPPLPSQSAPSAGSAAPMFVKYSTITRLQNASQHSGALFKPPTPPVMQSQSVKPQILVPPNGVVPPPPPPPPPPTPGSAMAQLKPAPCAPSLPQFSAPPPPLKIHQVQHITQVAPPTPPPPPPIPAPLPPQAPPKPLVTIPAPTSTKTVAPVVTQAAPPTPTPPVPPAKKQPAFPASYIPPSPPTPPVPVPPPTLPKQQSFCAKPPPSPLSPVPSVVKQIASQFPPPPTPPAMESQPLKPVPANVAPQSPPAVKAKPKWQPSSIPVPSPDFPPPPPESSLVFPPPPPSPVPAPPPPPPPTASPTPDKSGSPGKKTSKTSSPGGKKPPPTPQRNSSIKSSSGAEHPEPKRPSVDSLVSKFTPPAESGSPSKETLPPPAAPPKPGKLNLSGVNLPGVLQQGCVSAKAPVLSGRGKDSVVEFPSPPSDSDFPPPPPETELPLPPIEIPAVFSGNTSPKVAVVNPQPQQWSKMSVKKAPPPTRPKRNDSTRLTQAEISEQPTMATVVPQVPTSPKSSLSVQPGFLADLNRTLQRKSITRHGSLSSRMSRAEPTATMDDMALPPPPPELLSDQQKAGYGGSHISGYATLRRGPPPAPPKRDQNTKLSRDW
Summary of the method: as §1

binding result (TRAPPC11): binds
binding result (RAPH1): binds
B1: LZTR1-FLAG (other, human, UniProt Q8N653 1-840, looked up)
chain: MAGPGSTGGQIGAAALAGGARSKVAPSVDFDHSCSDSVEYLTLNFGPFETVHRWRRLPPCDEFVGARRSKHTVVAYKDAIYVFGGDNGKTMLNDLLRFDVKDCSWCRAFTTGTPPAPRYHHSAVVYGSSMFVFGGYTGDIYSNSNLKNKNDLFEYKFATGQWTEWKIEGRLPVARSAHGATVYSDKLWIFAGYDGNARLNDMWTIGLQDRELTCWEEVAQSGEIPPSCCNFPVAVCRDKMFVFSGQSGAKITNNLFQFEFKDKTWTRIPTEHLLRGSPPPPQRRYGHTMVAFDRHLYVFGGAADNTLPNELHCYDVDFQTWEVVQPSSDSEVGGAEVPERACASEEVPTLTYEERVGFKKSRDVFGLDFGTTSAKQPTQPASELPSGRLFHAAAVISDAMYIFGGTVDNNIRSGEMYRFQFSCYPKCTLHEDYGRLWESRQFCDVEFVLGEKEECVQGHVAIVTARSRWLRRKITQARERLAQKLEQEAAPVPREAPGVAAGGARPPLLHVAIREAEARPFEVLMQFLYTDKIKYPRKGHVEDVLLIMDVYKLALSFQLCRLEQLCRQYIEASVDLQNVLVVCESAARLQLSQLKEHCLNFVVKESHFNQVIMMKEFERLSSPLIVEIVRRKQQPPPRTPLDQPVDIGTSLIQDMKAYLEGAGAEFCDITLLLDGHPRPAHKAILAARSSYFEAMFRSFMPEDGQVNISIGEMVPSRQAFESMLRYIYYGEVNMPPEDSLYLFAAPYYYGFYNNRLQAYCKQNLEMNVTVQNVLQILEAADKTQALDMKRHCLHIIVHQFTKVSKLPTLRSLSQQLLLDIIDSLASHISDKQCAELGADI
notes: Expressed in HEK 293T, HeLa or U87 cells; used as cell lysate; also called LZTR1 wild type-FLAG; LZTR1 WT; not shown: FLAG tag at the C-terminus
